The results in this text go back to PMC12177922, “In Vivo Ribosome-Amplified MetaBOlism, RAMBO, Effect Observed by Real Time Pulse Chase, RTPC, NMR Spectroscopy” (Biochemistry, 2025).

Substrate in this series: Nc1ncnc2c1ncn2[C@@H]1O[C@H](COP(=O)(O)OP(=O)(O)OP(=O)(O)O)[C@@H](O)[C@H]1O
The series is described as follows: direct 1H NMR kinetic assay (FBP peak). It counts as biochemical, Geobacillus stearothermophilus. The following applies: 1 mM F6P, 1 nM enzyme, pH 7.5, 10 mM sodium phosphate, 50 mM KCl, 10 mM MgCl2, 10 °C, no ribosomes, fit with substrate inhibition.

B1: PFK-A (Geobacillus stearothermophilus) (protein)
chain: MKRIGVLTSGGDSPGMNAAIRSVVRKAIYHGVEVYGVYHGYAGLIAGNIKKLEVGDVGDIIHRGGTILYTARCPEFKTEEGQKKGIEQLKKHGIEGLVVIGGDGSYQGAKKLTEHGFPCVGVPGTIDNDIPGTDFTIGFDTALNTVIDAIDKIRDTATSHERTYVIEVMGRHAGDIALWSGLAGGAETILIPEADYDMNDVIARLKRGHERGKKHSIIIVAEGVGSGVDFGRQIQEATGFETRVTVLGHVQRGGSPTAFDRVLASRLGARAVELLLEGKGGRCVGIQNNQLVDHDIAEALANKHTIDQRMYALSKELSI
notes: commercial lyophilized enzyme (Sigma-Aldrich)
The Km is the substrate concentration at which the rate is half of its maximum. Broadly, the kcat is the maximal rate divided by the concentration of active sites. As to B1, the Km was 84 ± 9.8 µM and the turnover number (kcat) came out at 36 ± 1.5 s⁻¹.
